PMC2132824
Values joined by “and” are separate entries in the source; they are usually repeats but may differ in a detail not shown here. Identical values can stand only once.

Assays:
Test in all cases: co-sedimentation
[1] = target: rabbit skeletal muscle F-actin (rabbit) (UniProt P68135)
F-actin = target: F-actin
[2] = target: human platelet nonmuscle F-actin (human) (UniProt P60709)

**Q.** Which results are given for “recombinant full-length small espin (natural protein)”?
**A.** Kd [1]: 0.15 µM; stoichiometry N (actin monomers per espin) (F-actin): 3 and 4; Kd [2]: 0.05 µM
